# Source: the DeepSol protein solubility set
# Assay: soluble on expression in E. coli; label from the status in PepcDB or PDB records
row,Sequence,soluble on expression in E. coli
1,MMIKIAVVGSKEFMENLFPIAQKLEGIEIDPYIYLHPAESSELLKCLKPCDVIFFSGALPYYMAKEIREQLRIPSTYLQQDETTVASSILSIMYHQSIQPHNISIDLVDRSFITNVFHDIGIKESPQVLDYENMLWSKDEINRVIDFHVAKYQYGEAHLALTSIHAVYDELQKIGIPSERMIDPTQSIIHGLKDAKIKAELAKSYSATVGACIISSLELRASLLEKLDVISKELRGSFKQVDEMTCILYTTRGDIESIIKTNAIDNLFASIEGTIAIGFGYGKTVKEAEQNAKIAQSFAKNYPIDRCFYILASDKDLFGPFPKEQRVQSLKNDNPELMKIAKETKLSPANLSKIIQFSQSHPSLKFTAADLSEYLQVTRRSTERLLKKLVDYGYAHICGEEMPYQQGRPRALYELNFPLFLSF,not soluble
2,ADKKLVVATDTAFVPFEFKQGDLYVGFDVDLWAAIAKELKLDYELKPMDFSGIIPALQTKNVDLALAGITITDERKKAIDFSDGYYKSGLLVMVKANNNDVKSVKDLDGKVVAVKSGTGSVDYAKANIKTKDLRQFPNIDNAYMELGTNRADAVLHDTPNILYFIKTAGNGQFKAVGDSLEAQQYGIAFPKGSDELRDKVNGALKTLRENGTYNEIYKKWFGTEPK,soluble
3,MNKLQSYFIASVLYVMTPHAFAQGTVTIYLPGEQQTLSVGPVENVVQLVTQPQLRDRLWWPGALLTDSAAKAKALKDYQHVMAQLASWEAEADDDVAATIKSVRQQLLNLNITGRLPVKLDPDFVRVDENSNPPLVGDYTLYTVQRPVTITLLGAVSGAGQLPWQAGRSVTDYLQDHPRLAGADKNNVMVITPEGETVVAPVALWNKRHVEPPPGSQLWLGFSAHVLPEKYADLNDQIVSVLTQRVPD,not soluble
4,MGSDKIHHHHHHMDLSKIASTINMRYYSQLGGFQVGGAVSGLDTQSIINAILEAESQPLQNLTEKYEKYELMQEAYTEVKTKLREFRDLVYSFKLQSTVVQKTAVSSSSLLSAEASSVAVTGVYHVKIVQTATYTTLAGASEVVPPPDSTKTFGELDYMYTPQEGTVRLYNNETGNYVEVQVLSTDTIDDIVSKLNSALSSAGITGSVSYDTSTGKISITSDKNFSLVDITGNFTKVFHLDEASLNYSGGNYSFTSTASVSGLSTAKTLQQIATYTSKTIISGKVKINGVEIDVDQNDTLSSLIEKINDSEAGVTASYDYHANRVVIISKTSGPEAITLEDTYGTGLFSLLGIENHSLYVGQKAHLQISMDGTNWADVYSDTNDVEYNGVTFHISGMTSETITVDVRVDTDAIVEKIKEFVDKWNETMDYLNEKLTEESITDKDEEEMTEEEKMKGVLKGDDLLEEIFSRLRGFITYKAEGDINYLWELGISTGDIGTGYENMMKGHLEVDEEKLKQIVEEDPNKVWEFFGGENGFATQLDDYLWELVKFNGRIDQVAGISGRIEREQRFLATQIASWIERLSKREQELWRKFSVMEEVISQLQSQGSWISQALQGSSNK,not soluble
5,MGSDKIHHHHHHMRFYPWLQWLKRKTAGAGCVHQFIQTQCPAPAESGTQEPPPAEQDTQTESNAMPSLALRIGDKNFRATLYDNDSTRSLLKKLPLTLTMDELNGNEKFYFFSEKLPSASERVGSIKTGDLMLYGSDCLVLFYESFPTSYSYTRLGTVDDVTGLANALGSGSVEVTFSIN,not soluble
6,MCPPYGANKFSRKKVMYVIVDIQGQQMKVEQGRRLFVHHIKDVESGASVEFDKVLLVDNNGAITVGSPLVEGAKVVCEVLTPLVKGDKVLIFHKKRRKGYRKLNGHRQQFTEILVKEVVA,not soluble
7,MIITVTAFKGGVGKTTSSIHLAAYLNNKAPTILIDGDLNRSALLWASHEKLDFPVVDEREGLKAARNYEHIVVDTPARPEIEEIRSLARGCDLMILPTSPDALSMGALQANIQTFKQLNIPNFRILMTIVPPKPSTAGTEAKEYLQSLGLPVFKRMITRYAAFPKAALEGCVVRDVKGDRYAGAGWNDYKTVGGEIYGLEHHHHHH,soluble
8,VVELDETPVRTLLARQGIYDKNSAIVAYELLYRNSDAENSHVDNLNQSSGEAATSSVLVQLFANLDVNTIIGNKQAFINFTHSHLVQKIPMLLPKNRIVIEVLETVAIDQPLLLNLMELKKQGYQIALDDFVFRNELAPLVDMADIIKIDVLHLDQQQIAEQLLPLKSFRGKLLAEKIEDKQQFNHCVNLGFDFFQGFFLNKP,not soluble
9,MRPQIMPFYIEMGKGDGGITGEDILQNWMLKSNLKNVEILEELPLRPTKLVVAISEEIYPDVYTIEDFKEKVGDREVFIASEFPEIARKYAEKHGLNAIVFDPIGKTEAALLPPMPEADLIIEITEFGTTLKENMCRIIDLVMDKVHSVFIVNKESLKDEEKKQVMENLVTDLKEVIESRNLVSFYFNVPNEDDLRRIIDYLTENGFDPTISPLAKGGAAVHIIVDRSRVKFLKPIIRGMGAKRIATSPVITSGTNRAAQQKPFYLLSGIQREFPSASPFF,not soluble
10,GPGSMAVAAAAAAQTVAPRPPMQIGRADIAQMVASNPHVPTFSLPMNRQLEREFRTFRPVLIIAPLSTLPHWASEFQRFSRRHTAAAVSPCPGGVDAAERFTVYVLNGPRSERESRMGELLAHVERLTQQPPTPGGASGATPATPVVVIPHDMLTKPLRGALRQIRRVDWQVVAIDEAQRIKCARSFLFKKVCGLHSVSRRVLTGHTVADQHDGALPCSCAFRHRTRSSRVSCLSSWIAHCSPQVGRARWRIASCASSCAAVLIDFRCRSSCGVRGAS,soluble
11,SDIAIHHPWIRRPFFPFHSPSRLFDQFFGEHLLESDLFPTSTSLSPFYLRPPSFLRAPSWFDTGLSEMRLEKDRFSVNLDVKHFSPEELKVKVLGDVIEVHGKHEERQDEHGFISREFHRKYRIPADVDPLTITSSLSSDGVLTVNGPRKQVSGPERTIPITREEKPAVTAAPKK,soluble
12,MNTKARKYIPLTEATYYILLSLVKPMHGYGIMQLVEEMTNGEVKLGPGTLYGNTTKLLKEKLIVEVASTDRKKCYELTPFGKEVLELEYNRLQRSVRNGNSILGE,soluble
13,MSSTLPVINLMGPTASGKTALACELYERGHFELISVDSALIYKDMDIGTAKPTKEELALYPHHLIDIITPLEVYSAAQFVEDATQLIDQIHMKGKTPILVGGTMLYFKSLLEGLSTNLPSADAEVRAAIEKQAEQEGWQSVYDELARVDPVAGARFKVSDRQRIIRAIEVYRLTGQPITKLQAEQPKNVPYRYTFHNYALLPDRIELHKRIEQRLFKMWSIGFLNEVESLIKKYDLNDNLPSMRSVGYRQALDFLLKSDMSHNNRREMEDKALFATRQLAKRQYTWLRSLQETHYFKTYLTIKQAQEDLRNSYGLEHHHHHH,soluble
14,MTVSTPPSIATGNAPSPDYRVEILSESLPFIQKFRGKTIVVKYGGAAMTSPELKSSVVSDLVLLACVGLRPILVHGGGPDINRYLKQLNIPAEFRDGLRVTDATTMEIVSMVLVGKVNKNLVSLINAAGATAVGLSGHDGRLLTARPVPNSAQLGFVGEVARVDPSVLRPLVDYGYIPVIASVAADDSGQAYNINADTVAGELAAALGAEKLILLTDVAGILENKEDPSSLIKEIDIKGVKKMIEDGKVAGGMIPKVKCCIRSLAQGVKTASIIDGRRQHSLLHEIMSDEGAGTMITG,soluble
15,TEKARDLFDKLMTQIQLDDTAKEHPLIQNGRIDKVIVHQQSRLWEFHLSFDELMPVMLYQTFMQQLELAFQQIAQVSVQITTNQTTFTEEQLTDYWQLALLNSQCNTPLVQKVLKTQTPQFEDRKIILPVDNEAVIPYLKQQYLPIIEELYFSYGF,not soluble
16,TAELKICRVNRNSGSCLGGDEIFLLCDKVQKEDIEVYFTGPGWEARGSFSQADVHRQVAIVFRTPPYADPSLQAPVRVSMQLRRPSDRELSEPMEFQYLPDTDDRHRIEEKRKRTYETFKSIMKKSPFNGPTEPRP,soluble
17,MGNKIAVIPGTFDPITNGHLDIIERAAKIFDVLYVSVLNNSSKKPLFTVEERMEMIKQVTAHLPNVHVESASGLTVDYAAKRGATAIVRGLRAVSDFEYEMQIASMNRTLNADIETFFVMTNTKYSFLSSSMVKEVAQYQGDIRELVPEVVNKAVKAKFNK,not soluble
18,MQEAIITSTVDLTSGGCNACGLVEDTVYTLAMNGVDIPLDGLTVAHLVSAIVARNGFKQELQMDMLDDEYILYRKEDTTVTFKEAYNHLSYDNGSEKIQSKNKLEDLPKLFEQVNQILTTVFGIGTVNFIIE,not soluble
19,MISNQILQNTIEGLKGISRIDFCVLDTEGKALATTFEDTWNYESAVLSFVESPADSQVIQGCQFFKIFDEQQLEYVLLAGGESEDVYMLGKIAAFQVQSLLVAYKERFDKDNFIKNLLLDNLLLVDIYNRAKKLHIDTEAKRVIFIIETSHEKDSVALDNVRNLLGGKSRDFVTAVDEKNIIVVKELADKAGSRELEKMAKEMMEILRAESEDDKIHIAYGTVVNDIKEVSKSYKEAKLALDVGKIFFDEKDIVAYSTLGIGRLIYQLPIPLCKMFIKEIFEGKSPDEFDEETLTTINKFFENSLNVSETSRQLYIHRNTLVYRLDKLQKSTGLDLRVFEDAITFKIALMVVKYMKYMETLEY,not soluble
20,ATEAHPAGGRLVLRPVRKSDAGLFAMYAGDRRVAEGTRGIPHPLPPGAAEAFVNRSTAEARSEDVWVMDGSASGLSEVLGVISLKRMDRDQSEIAYWVAPAFWNAGFASEAVRALIEANPQGSRTIFAEVFQDNPQSARVLTNCGFEYIGDAEAFSVARNARVPTWTY,not soluble
21,MANIDYMMDPGWKYLRQAQDEALKEQAARRFDNKTHAWVPDAAEGFVTAAVAVQEGDNLTFTMPDGTPKKLTRAEVQEINPAKFEKTEDMSNLTFLNEASVLHNLRQRYYSMMIYTYSGLFCVFINPYKMLPIYTDSVASMYVNKRRAEMPPHLFAVSDEAFRNMMSDKENQSMLITGESGAGKTENTKKVIAYFAMIGSGNKDQKSESSLENQVVQANPAIEAFGNGATTRNYNSSRYGKFIRIHFDRKGKLVGGDIEHYLLEKSRVIKQAPGERSYHIFYQIMTQKALRERYGLSDNIRDYKFVSQAEITVPGMNDTEEWQITDGAFNVMGFSEREKDDLYKLCSAIMHIGNSTFKQKPRDEQAEVDDMTSPTAACKLFGINTDQFLNALTRPRIKVGMEWVNKGQNVQQVDWAVGALSKAIYARMFNWLIKRVNKTLQANSDEMVYYIGVLDIAGFEIFDRNSFEQLWINFVNEKLQQFFNHHMFVLEQEEYQREGIEWTFIDFGLDLQSCIELIEKPLGIVSMLDEECIVPKASDMTYVDKLLTQHLGKHPNFQKAKPPKGKQAEAHFSIMHYAGTVRYNAEQWLDKNKDPLNDSAVAILKTSDKEGVLYQLWEEYQTDVDREESEKRGKAQAKKKGKSASFLTVSTMYRESLTSLMTMLHTTHPHFIRCIIPNEKKTSGLIDAPLVLNQLTCNGVLEGIRICRKGFPNRMMFADFRFRYAILAADEASDKDAAKASKAMLRKLSKNNQLNVDTFKVGTTKVFFRAGMLARLEELRDEALSAVILKFQCSLRHYLAQLEYKRRLDREDAYPIIQENIRAWIKLRSWPWYRLFSRLKPMLKGMKSNAEIEALEKKCKELEENHKREEEARKKYADELRAKIDQYEETKAAHERDRMLLDKRNKEIEELNRNLKAESESNYENAKKASELERLREKEKKEWDEKERRMQMEAENEANQHKTQTEKLKDQISTLQTDFEKVSAQRKAQEQMNAELVDEVASFKQKAERAEEQKKKLVEDLDSLDDKLAAEKRANNEHVKHNKKLEGQLKATQTQLTLALKEKHEFDVDCKRRESEIGELKLKAQGDANLISKLQAMLRKCISRIEELEEDLLEERKLRMKAERQFNELRSEYEVLQEQMAEASGQLTAEAHINKVRAEEVSNLRRDLQKRNLNHEAYISDLCNMQYATVNNLRNLSQQSATLESEALRILDHRRALSKQPLPRVYVEDPDSDSD,not soluble
22,MKDEISNPDLGAIYTTKILGVLLENWPKQTYLCCSEVTGIDFDEESVFDSFSPQPYPKEWEVCRDLIVWLENEGFIRSEGSRGSSFGFFSVEITMSAMTALNQVPDPLDPESTRTLKDTLKDIAKSGSGKLADKIMDKAFFAFVTMLEKSAG,not soluble
